# Reference: patent publication CN114539420A (SUZHOU INSTITUTE OF RESEARCH OF PSEUDO UNIV, dated 2022)
# T1: 重组人B7-H3蛋白 (recombinant human B7-H3-ECD protein, 11188-H08H, SinoBiological) (human, UniProt Q5ZPR3 29-466)
# T1 construct: extracellular domain; Bought protein; The EC50 sentence says only 'human B7-H3 protein'; also called 人B7-H3重组蛋白; 重组人B7-H3-ECD蛋白
# T1 sequence (looked up): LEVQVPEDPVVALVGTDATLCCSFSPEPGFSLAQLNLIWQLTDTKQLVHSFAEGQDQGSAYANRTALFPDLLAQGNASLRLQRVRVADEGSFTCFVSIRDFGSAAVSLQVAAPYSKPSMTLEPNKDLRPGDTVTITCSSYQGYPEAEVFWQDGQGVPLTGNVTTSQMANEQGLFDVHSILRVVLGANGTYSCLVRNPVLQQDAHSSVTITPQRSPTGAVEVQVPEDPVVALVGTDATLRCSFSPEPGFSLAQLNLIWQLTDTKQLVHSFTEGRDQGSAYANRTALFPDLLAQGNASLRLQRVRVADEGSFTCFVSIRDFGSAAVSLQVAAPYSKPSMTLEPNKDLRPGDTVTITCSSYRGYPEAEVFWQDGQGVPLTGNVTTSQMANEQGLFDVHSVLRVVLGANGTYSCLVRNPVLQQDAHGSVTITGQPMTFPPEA
# B1: 嵌合单克隆抗体10-2#c (chimeric anti-B7-H3 monoclonal antibody) (antibody, human IgG1, V domains shown)
# VH: EVQLQQSGPALVKPGTSVKISCKTSGYTFTEYIIHWVKQSHGKSLEWIGGINPNNGGTSYNQKFKGKATLTVDKSSSTAYMELRSLTSEDSAVYYCASRLAPSTAGFAYWGQGTMLTVSS
# VL: DIVLTQTPAIMSASPGEKVTMTCRASSSVSYMHWYQQRSGTSPKTWIYDTSKLASGVPGRFSGSGSGTSYSLTISIMEAEDAATYYCQQWSSNPPTFGGGTKLEIK
# notes: also called 抗B7-H3单克隆抗体; 嵌合抗体10-2#c
# Biological target: T1, 重组人B7-H3蛋白 (recombinant human B7-H3-ECD …)
# Test: ELISA on recombinant human B7-H3 protein (Fig. 2a, n=3)
binder,measurement,value
B1,EC50,2.22 ng/mL
